# In US20070244042A1 (University of Texas, published 2007):
# B1: TGFβ2 (ligand)
# chain: ALDAAYCFRNVQDNCCLRPLYIDFKRDLGWKWIHEPKGYNANFCAGACPYLWSSDTQHSRVLSLYNTINPEASASPCCVSQDLEPLTILYYIGKTPKIEQLSNMIVKSCKCS
# notes: also called TGFβ2 homodimer; transforming growth factor beta 2
# B2: TGFβ type II receptor extracellular domain (sRII) (receptor)
# chain: MIPPHVQKSVNNDMIVTDNNGAVKFPQLCKFCDVRFSTCDNQKSCMSNCSITSICEKPQEVCVAVWRKNDENITLETVCHDPKLPYHDFILEDAASPKCIMKEKKKPGETFFMCSCSSDECNDNIIFSEEYNTSNPD
# notes: also called recombinant sRII; extracellular domain of RII
# Legend:
# [1] = target: B2; test: electrophoretic mobility shift, 12% native polyacrylamide gel pH 8.8, Coomassie staining
# From the text: (§1) Referring now to FIG. 1, binding of the E-domain of betaglycan (BGe) and the TGFβ type II receptor extracellular domain (sRII) to TGFβ2. A. Electrophoretic mobility shift assay in which an increasing amount of sRII has been added to a fixed amount of TGFβ2 and then applied to 12% native polyacryamide gel at pH 8.8. The relative molar amounts of TGFβ2 and sRII used in the assay are indicated above the gel. The protein bands were visualized by Coomassie blue staining. B. Electrophoretic mobility shift assay in which an increasing amount of BGe has been added to a fixed amount of TGFβ2 and then applied to 12% native polyacryamide gel at pH 8.8. The relative molar amounts of TGFβ2 and BGe (sRIIIe) used in the assay are indicated above the gel. The protein bands were visualized by Coomassie blue staining. The arrow labeled BC designates the binary complex formed between TGFβ2 and BGe. C. […] Purified TGFβ2 and BGe have also been applied to the SDS gel as controls. Relative molar amounts are indicated above the gel. The protein bands were visualized by Coomassie blue staining. On the basis of the relative amounts of TGFβ2 and BGe (sRIIIe) in the binary complex, together with the relative band intensities for the TGFβ2 and BGe (sRIIIe) controls, we tentatively conclude that BGe and the TGFβ2 homodimer bind with 1:1 stochiometry.
# [2] = target: T1, E-domain of betaglycan (BGe) (Rattus norvegicus, UniProt P26342 24-409); test: as above
# T1 construct: also called sRIIIe; sBGe
# T1 sequence: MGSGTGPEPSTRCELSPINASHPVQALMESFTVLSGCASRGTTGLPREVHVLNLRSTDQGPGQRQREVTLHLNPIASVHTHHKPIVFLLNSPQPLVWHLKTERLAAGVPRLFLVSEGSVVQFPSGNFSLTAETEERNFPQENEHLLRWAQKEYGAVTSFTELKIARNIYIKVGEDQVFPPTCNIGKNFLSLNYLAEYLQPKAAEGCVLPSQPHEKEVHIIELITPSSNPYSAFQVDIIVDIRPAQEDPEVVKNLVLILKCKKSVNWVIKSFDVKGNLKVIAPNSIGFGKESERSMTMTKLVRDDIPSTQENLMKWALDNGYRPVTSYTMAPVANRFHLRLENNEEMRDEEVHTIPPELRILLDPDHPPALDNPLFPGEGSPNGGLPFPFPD
# From the text: as §1
binding result [1],binding result [2],Binder
no binding,–,B1
–,no binding,B2
